From PMC10357428

Test system: CC(=O)Oc1c[nH]c2ccccc12
Experiment: purified protein

## CanB (Mtb β-carbonic anhydrase, Rv3588c) (Mycobacterium tuberculosis H37Rv)
  Km: 4.5 ± 0.6 mM
